Measured values from US5614400.

How the values were obtained:
[1] = biological target: [1-^14 C]14:0-ACP (myristoyl-acyl carrier protein made with Escherichia coli ACP) (Escherichia coli) (UniProt P0A6A8)
[2] = biological target: [1-^14 C]16:0-ACP (palmitoyl-acyl carrier protein made with Escherichia coli ACP) (Escherichia coli) (UniProt P0A6A8)

## 100,000×g supernatant of a T. alata endosperm homogenate (soluble Δ^6 16:0-ACP desaturase activity) (pool or library)
[1]
  Δ^6 monounsaturated product, specific activity (pmol/min/mg protein): 13
[2]
  Δ^6 monounsaturated product, specific activity (pmol/min/mg protein): 99
